Results from patent US20220403041A1 (Sanofi, published 2022).

How the values were obtained:
soluble CD73 dimer [1] = target: T1, soluble CD73 dimer (human, UniProt P21589 27-549, limits assumed); test: SPR, antibody captured on Protein A chip, CD73 in flow; biphasic fit, component of abundance 9%
T1 construct: CD73 in the flow (SPR) or in solution (BLI binning); also called soluble human CD73
T1 sequence: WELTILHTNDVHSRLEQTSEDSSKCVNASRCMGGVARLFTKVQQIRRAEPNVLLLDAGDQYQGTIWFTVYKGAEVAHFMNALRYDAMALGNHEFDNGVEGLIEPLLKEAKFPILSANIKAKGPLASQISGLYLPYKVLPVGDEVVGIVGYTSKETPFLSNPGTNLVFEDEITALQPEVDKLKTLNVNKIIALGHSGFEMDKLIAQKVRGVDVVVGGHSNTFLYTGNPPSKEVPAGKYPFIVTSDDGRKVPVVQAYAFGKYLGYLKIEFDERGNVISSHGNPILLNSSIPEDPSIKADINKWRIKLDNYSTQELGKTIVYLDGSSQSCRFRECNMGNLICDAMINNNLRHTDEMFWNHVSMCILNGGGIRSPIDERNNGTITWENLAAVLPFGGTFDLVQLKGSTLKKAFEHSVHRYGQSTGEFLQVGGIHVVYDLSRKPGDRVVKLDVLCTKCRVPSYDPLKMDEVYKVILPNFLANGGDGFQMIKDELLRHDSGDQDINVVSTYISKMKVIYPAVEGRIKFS

soluble CD73 dimer [2] = target: T1, soluble CD73 dimer; test: SPR, antibody captured on Protein A chip, CD73 in flow; biphasic fit, component of abundance 91%
soluble CD73 dimer [3] = target: T1, soluble CD73 dimer; test: SPR, antibody captured on chip, CD73 in flow; biphasic fit, share after 300 s binding phase of the component with ka 8.50E+05 1/Ms
soluble CD73 dimer [4] = target: T1, soluble CD73 dimer; test: SPR, antibody captured on chip, CD73 in flow; biphasic fit, share by T0 intercept of the component with kd 4.06E-03 1/s
soluble CD73 dimer [5] = target: T1, soluble CD73 dimer; test: SPR dissociation kinetics
soluble CD73 dimer [6] = target: T1, soluble CD73 dimer; test: SPR, antibody captured on chip, CD73 in flow; biphasic fit, share by T0 intercept of the component with kd 1.28E-04 1/s
soluble CD73 dimer [7] = target: T1, soluble CD73 dimer; test: SPR, antibody captured on Protein A chip, CD73 in flow; biphasic fit, component of abundance 43%
[8] = target: T2, human CD73 on COR-L23 lung carcinoma cells (human) (UniProt P21589)
T2 sequence: T1 sequence

[9] = target: T2, human CD73 on COR-L23 lung carcinoma cells (human); test: cell-based or functional assay
soluble CD73 dimer [10] = target: T1, soluble CD73 dimer; test: SPR, antibody captured on Protein A chip, CD73 in flow; Langmuir 1:1 fit
soluble CD73 dimer [11] = target: T1, soluble CD73 dimer; test: SPR, antibody captured on chip, CD73 in flow; biphasic fit, share after 300 s binding phase of the component with ka 1.58E+05 1/Ms
soluble CD73 dimer [12] = target: T1, soluble CD73 dimer; test: SPR, antibody captured on Protein A chip, CD73 in flow; biphasic fit, component of abundance 57%
soluble CD73 dimer [13] = target: T1, soluble CD73 dimer; test: SPR, antibody captured on Protein A chip, CD73 in flow; Langmuir ka with major component kd
soluble CD73 dimer [14] = target: T1, soluble CD73 dimer; test: SPR, antibody on the solid support, soluble CD73 dimer in solution
soluble CD73 dimer [15] = target: T1, soluble CD73 dimer; test: SPR, antibody captured on Protein A chip, CD73 in flow; biphasic fit, component of abundance 65%
soluble CD73 dimer [16] = target: T1, soluble CD73 dimer; test: SPR, antibody captured on Protein A chip, CD73 in flow; biphasic fit, component of abundance 35%
soluble CD73 dimer [17] = target: T1, soluble CD73 dimer; test: SPR, antibody captured on Protein A chip, CD73 in flow; biphasic fit, component of abundance 85%
soluble CD73 dimer [18] = target: T1, soluble CD73 dimer; test: SPR; KD from Langmuir ka and kd of the principal dissociation component
soluble CD73 dimer [19] = target: T1, soluble CD73 dimer; test: SPR, antibody captured on chip, CD73 in flow; biphasic fit, share by T0 intercept of the component with kd 2.70E-05 1/s
soluble CD73 dimer [20] = target: T1, soluble CD73 dimer; test: SPR, antibody captured on chip, CD73 in flow; biphasic fit, share by T0 intercept of the component with kd 2.70E-03 1/s
soluble CD73 dimer [21] = target: T1, soluble CD73 dimer; test: SPR, antibody captured on chip, CD73 in flow; biphasic fit, share after 300 s binding phase of the component with ka 2.81E+05 1/Ms
soluble CD73 dimer [22] = target: T1, soluble CD73 dimer; test: SPR, antibody captured on chip, CD73 in flow; biphasic fit, share after 300 s binding phase of the component with ka 1.38E+06 1/Ms
soluble CD73 dimer [23] = target: T1, soluble CD73 dimer; test: SPR, antibody captured on Protein A chip, CD73 in flow; biphasic fit, component of abundance 15%
soluble CD73 dimer [24] = target: T1, soluble CD73 dimer; test: SPR, antibody captured on chip, CD73 in flow; biphasic fit, share after 300 s binding phase of the component with ka 1.19E+06 1/Ms
soluble CD73 dimer [25] = target: T1, soluble CD73 dimer; test: SPR, antibody captured on chip, CD73 in flow; biphasic fit, share by T0 intercept of the component with kd 6.00E-03 1/s
soluble CD73 dimer [26] = target: T1, soluble CD73 dimer; test: SPR, antibody captured on Protein A chip, CD73 in flow; biphasic fit, component of abundance 45%
soluble CD73 dimer [27] = target: T1, soluble CD73 dimer; test: SPR, antibody captured on Protein A chip, CD73 in flow; biphasic fit, component of abundance 55%
soluble CD73 dimer [28] = target: T1, soluble CD73 dimer; test: SPR, antibody captured on chip, CD73 in flow; biphasic fit, share after 300 s binding phase of the component with ka 1.16E+05 1/Ms
soluble CD73 dimer [29] = target: T1, soluble CD73 dimer; test: SPR, antibody captured on chip, CD73 in flow; biphasic fit, share by T0 intercept of the component with kd 7.80E-05 1/s

B1: E3.2/TB19 (bispecific antibody, part only; not given: E3.2 arm; constant regions, V domains shown, part only)
VH: QEQLQESGPGLVKPSETLSLTCTVSGGSIRNNYYNWIRQPAGKGLEWIGRIYISGTTNSNPSLKSRVTMSIDTSKNQFSLKLSSVTAADTAIYYCAREHYVSGTSLDNWGQGTLVTVSS
VL: EIVMTQSPTTLSLSPGERATLSCRASQSVNTNYFSWYQQKPGLTPRLLIYGTSTRATGIPARFSGSGSGTDFTLTISSLQPEDFGIYYCQQDYNLPYTFGQGTYLEIK
koff (soluble CD73 dimer [1]): 0.00406 s⁻¹ | koff (soluble CD73 dimer [2]): 0.000128 s⁻¹ | abundance of association component (biphasic fit) (soluble CD73 dimer [3]): 43% | abundance of dissociation component (biphasic fit) (soluble CD73 dimer [4]): 9% | fold more stable (kd of the principal component) than with either monovalent parental (soluble CD73 dimer [5]): 5.4 fold | abundance of dissociation component (biphasic fit) (soluble CD73 dimer [6]): 91% | kon (soluble CD73 dimer [7]): 850000 M⁻¹ s⁻¹ | % inhibition of CD73 activity at 1 µg/ml antibody (COR-L23 cells, 4 h, LC/MS); cell E3.2 x TB19 [8]: 95% | EC50 (nM) of inhibition of CD73 activity (adenosine by LC/MS) [9]: 0.443 nM | Max Inhib. (projected maximal inhibition at saturating antibody) [9]: 97% | inhibition of CD73 enzymatic activity on COR-L23 cells at 1 µg/mL [9]: > 95% | koff (soluble CD73 dimer [10]): 0.000164 s⁻¹ | kon (soluble CD73 dimer [10]): 364000 M⁻¹ s⁻¹ | abundance of association component (biphasic fit) (soluble CD73 dimer [11]): 57% | kon (soluble CD73 dimer [12]): 158000 M⁻¹ s⁻¹ | Kd (soluble CD73 dimer [13]): 0.352 nM

B2: TB19/AS30 (bispecific antibody, part only; not given: AS30 arm, constant regions, V domains shown, not shown: another chain or arm of the molecule; a dimerising Fc or GST; small tags and cut ends)
VH: B1 VH
VL: B1 VL
% inhibition of CD73 activity at 1 µg/ml antibody (COR-L23 cells, 4 h, LC/MS); cell TB19 x AS30 (monovalent) [8]: -1% | koff (soluble CD73 dimer [10]): 0.00069 s⁻¹ | kon (soluble CD73 dimer [10]): 165000 M⁻¹ s⁻¹ | Kd (soluble CD73 dimer [13]): 4.18 nM

B3: TB19/TA9 (bispecific antibody, part only; not given: TA9 arm, part only)
TB19 arm heavy chain: B1 VH
TB19 arm light chain: EIVMTQSPTTLSLSPGERATLSCRASQSVNTNYFSWYQQKPGLTPRLLIYGTSTRATGIPARFSGSGSGTDFTLTISSLQPEDFGIYYCQQDYNLPYTFGQGTYLEIKRTVAAPSVFIFPPSDEQLKSGTASVVCLLNNFYPREAKVQWKVDNALQSGNSQESVTEQDSKDSTYSLSSTLTLSKADYEKHKVYACEVTHQGLSSPVTKSFNRGEC
% inhibition of CD73 activity at 1 µg/ml antibody (COR-L23 cells, 4 h, LC/MS); cell TB19 x TA9 [8]: 70%

B4: TB19/E23 (bispecific antibody, part only; not given: E23 arm, part only)
TB19 arm heavy chain: B1 VH
TB19 arm light chain: B3 TB19 arm light chain
% inhibition of CD73 activity at 1 µg/ml antibody (COR-L23 cells, 4 h, LC/MS); cell TB19 x E23 [8]: 50%

B5: TB19/F1.2 (bispecific antibody, part only; not given: F1.2 arm, part only)
TB19 arm heavy chain: B1 VH
TB19 arm light chain: B3 TB19 arm light chain
% inhibition of CD73 activity at 1 µg/ml antibody (COR-L23 cells, 4 h, LC/MS); cell TB19 x F1.2 [8]: 47%

B6: TB19/C16 (bispecific antibody, part only; not given: C16 arm, part only)
TB19 arm heavy chain: B1 VH
TB19 arm light chain: B3 TB19 arm light chain
% inhibition of CD73 activity at 1 µg/ml antibody (COR-L23 cells, 4 h, LC/MS); cell TB19 x C16 [8]: 85%

B7: TB19/H19 (bispecific antibody, part only; not given: H19 arm; constant regions, V domains shown, part only)
VH: B1 VH
VL: B1 VL
fold lower KD than either parental antibody (soluble CD73 dimer [14]): 15 fold | kon (soluble CD73 dimer [15]): 281000 M⁻¹ s⁻¹ | kon (soluble CD73 dimer [16]): 1.38e+06 M⁻¹ s⁻¹ | koff (soluble CD73 dimer [17]): 2.7e-05 s⁻¹ | fold increase of apparent affinity (KD) over either monovalent parental antibody (soluble CD73 dimer [18]): 69 fold | fold more stable (kd of the principal component) than with either monovalent parental (soluble CD73 dimer [5]): 26 fold | abundance of dissociation component (biphasic fit) (soluble CD73 dimer [19]): 85% | abundance of dissociation component (biphasic fit) (soluble CD73 dimer [20]): 15% | abundance of association component (biphasic fit) (soluble CD73 dimer [21]): 65% | % inhibition of CD73 activity at 1 µg/ml antibody (COR-L23 cells, 4 h, LC/MS); cell TB19 x H19 [8]: 97% | abundance of association component (biphasic fit) (soluble CD73 dimer [22]): 35% | EC50 (nM) of inhibition of CD73 activity (adenosine by LC/MS) [9]: 0.382 nM | Max Inhib. (projected maximal inhibition at saturating antibody) [9]: 98% | inhibition of CD73 enzymatic activity on COR-L23 cells at 1 µg/mL [9]: > 95% | koff (soluble CD73 dimer [10]): 0.000112 s⁻¹ | kon (soluble CD73 dimer [10]): 449000 M⁻¹ s⁻¹ | koff (soluble CD73 dimer [23]): 0.0027 s⁻¹ | Kd (soluble CD73 dimer [13]): 0.0602 nM

B8: TB19/TC29 (bispecific antibody, part only; not given: TC29 arm; constant regions, V domains shown, part only)
VH: B1 VH
VL: B1 VL
abundance of association component (biphasic fit) (soluble CD73 dimer [24]): 55% | koff (soluble CD73 dimer [1]): 0.006 s⁻¹ | koff (soluble CD73 dimer [2]): 7.8e-05 s⁻¹ | abundance of dissociation component (biphasic fit) (soluble CD73 dimer [25]): 9% | kon (soluble CD73 dimer [26]): 116000 M⁻¹ s⁻¹ | kon (soluble CD73 dimer [27]): 1.19e+06 M⁻¹ s⁻¹ | abundance of association component (biphasic fit) (soluble CD73 dimer [28]): 45% | % inhibition of CD73 activity at 1 µg/ml antibody (COR-L23 cells, 4 h, LC/MS); cell TB19 x TC29 [8]: 95% | abundance of dissociation component (biphasic fit) (soluble CD73 dimer [29]): 91% | EC50 (nM) of inhibition of CD73 activity (adenosine by LC/MS) [9]: 0.264 nM | EC50, fold lower than that of the antibody mixture [9]: 50 fold | Max Inhib. (projected maximal inhibition at saturating antibody) [9]: 95% | inhibition of CD73 enzymatic activity on COR-L23 cells at 1 µg/mL [9]: > 95% | koff (soluble CD73 dimer [10]): 8.96e-05 s⁻¹ | kon (soluble CD73 dimer [10]): 685000 M⁻¹ s⁻¹ | Kd (soluble CD73 dimer [13]): 0.114 nM

B9: TB19/TA10 (bispecific antibody, part only; not given: TA10 arm, part only)
TB19 arm heavy chain: B1 VH
TB19 arm light chain: B3 TB19 arm light chain
% inhibition of CD73 activity at 1 µg/ml antibody (COR-L23 cells, 4 h, LC/MS); cell TB19 x TA10 [8]: 80%
